In PMC6517402 (Scientific Reports, 2019):

Biological target: the molecule itself
Experiment: crystal structure; X-ray, 1.85 Å, SAD phasing with SeMet protein, then molecular replacement into the wild-type crystal; three molecules in the asymmetric unit

B1: ORF212 tailspike protein (TSP3) of E. coli O157:H7 phage CBA120 (enzyme, UniProt G3M191 1-627, looked up)
chain: MISQFNQPRGSTSIEVNKQSIARNFGVKEDEVIYFTAGIDLSGFKVIYDESTQRAYSLPFGIVSGTTAISLDERAILTHSAGSVDLGELAVSREEYVTLPGSFNFGHTINVKNELLVHDDKKYRWDGSLPKVVAAGSTPDSSGGVGLGAWLSVGDAALRAELNTKVSDGTFPATIKYKYGLPSVIDGAIYRTVQDKLDDFVFLEDFGGKDDAGSTDNSIAFRKAFASGARKIRLRGSGVYGMATRDIELPAKYEIIGNAKNPEIKYLGTDTSFTMFTLTGSGPASNQWKQGGMFRDLIISSDVKINWMLGRHVQNLDYDRVFFYNSATVLNNYHYVNFTRCERWGSAFIGRADLNTIQFISESPKFHLCFSSGSPIDVWDTADLAITKCTMFAGDYAVRTRVTQKQVTAPDLFAGYPVLITCSVFDAVRGHAWDLEGSVYSTITGNLVSAGRDTNSHGAYIKGGRSLSLTGNVFTYCGNYGLVLEDVQQSGFVGNVFNGNKTGGLGTLACKDLSIVGGSMGTTYVRGGYYTQPVGYSDISSNSTGILLSGVAFDEALTTKVYLDTSITTRNKVINCSGVPDTIARGSTANRPANPQASYQYYDTTLGIPIWWNSVSGTWKNAAGADV
notes: also called CBA120 TSP3; wild-type TSP3
B1 was tested, and the “stoichiometry N” value was 3.
